Measurements as given in patent US20150344570A1 (published 2015).

B1: GpH7-B3 variant A330_05P/GpL16-k0 (antibody, human IgG1, kappa)
heavy: not shown
light: DIVMTQSPLSLPVTPGEPASISCQASESLVHSNRNTYLHWYLQKPGQSPQLLIYKVSNRFSGVPDRFSGSGSGTDFTLKISRVEAEDVGVYYCSQNTHVPPTFGQGTKVEIERTVAAPSVFIFPPSDEQLKSGTASVVCLLNNFYPREAKVQWKVDNALQSGNSQESVTEQDSKDSTYSLSSTLTLSKADYEKHKVYACEVTHQGLSSPVTKSFNRGEC
notes: also called Ho Ab A330_05P
B2: GpH7-B3 variant G236_02A/GpL16-k0 (antibody, human IgG1, kappa)
heavy: not shown
light: B1 light
notes: also called Ho Ab G236_02A
B3: GpH7-B3 variant K326_18N/GpL16-k0 (antibody, human IgG1, kappa)
heavy: not shown
light: B1 light
notes: also called Ho Ab K326_18N
B4: GpH7-B3 variant E333_02A/GpL16-k0 (antibody, human IgG1, kappa)
heavy: not shown
light: B1 light
notes: also called Ho Ab E333_02A
B5: GpH7-B3 variant H268_14T/GpL16-k0 (antibody, human IgG1, kappa)
heavy: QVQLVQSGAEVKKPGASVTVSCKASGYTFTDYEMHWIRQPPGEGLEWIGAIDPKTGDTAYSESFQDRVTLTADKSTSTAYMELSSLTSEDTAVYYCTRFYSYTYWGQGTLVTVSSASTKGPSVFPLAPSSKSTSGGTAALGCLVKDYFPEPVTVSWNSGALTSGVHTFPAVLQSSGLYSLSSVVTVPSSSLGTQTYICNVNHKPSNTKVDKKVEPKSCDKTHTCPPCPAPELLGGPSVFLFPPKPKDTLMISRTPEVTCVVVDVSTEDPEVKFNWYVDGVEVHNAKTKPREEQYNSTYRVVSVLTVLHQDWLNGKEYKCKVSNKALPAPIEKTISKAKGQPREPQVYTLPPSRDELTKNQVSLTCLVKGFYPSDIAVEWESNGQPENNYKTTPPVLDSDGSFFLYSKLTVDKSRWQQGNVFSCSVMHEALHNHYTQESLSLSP
light: B1 light
notes: also called Ho Ab H268_14T
B6: GpH7-B3 variant H268_20W/GpL16-k0 (antibody, human IgG1, kappa)
heavy: not shown
light: B1 light
notes: also called Ho Ab H268_20W
B7: GpH7-B3 variant I336_04F/GpL16-k0 (antibody, human IgG1, kappa)
heavy: not shown
light: B1 light
notes: also called Ho Ab I336_04F
B8: GpH7-B3 variant K326_15Y/GpL16-k0 (antibody, human IgG1, kappa)
heavy: not shown
light: B1 light
notes: also called Ho Ab K326_15Y
B9: GpH7-B3 variant E333_04F/GpL16-k0 (antibody, human IgG1, kappa)
heavy: not shown
light: B1 light
notes: also called Ho Ab E333_04F
B10: GpH7-B3 variant G236_20W/GpL16-k0 (antibody, human IgG1, kappa)
heavy: not shown
light: B1 light
notes: also called Ho Ab G236_20W
B11: GpH7-B3 variant E333_08L/GpL16-k0 (antibody, human IgG1, kappa)
heavy: not shown
light: B1 light
notes: also called Ho Ab E333_08L
B12: GpH7-B3 variant H268_07I/GpL16-k0 (antibody, human IgG1, kappa)
heavy: not shown
light: B1 light
notes: also called Ho Ab H268_07I
B13: GpH7-B3 variant H268_08L/GpL16-k0 (antibody, human IgG1, kappa)
heavy: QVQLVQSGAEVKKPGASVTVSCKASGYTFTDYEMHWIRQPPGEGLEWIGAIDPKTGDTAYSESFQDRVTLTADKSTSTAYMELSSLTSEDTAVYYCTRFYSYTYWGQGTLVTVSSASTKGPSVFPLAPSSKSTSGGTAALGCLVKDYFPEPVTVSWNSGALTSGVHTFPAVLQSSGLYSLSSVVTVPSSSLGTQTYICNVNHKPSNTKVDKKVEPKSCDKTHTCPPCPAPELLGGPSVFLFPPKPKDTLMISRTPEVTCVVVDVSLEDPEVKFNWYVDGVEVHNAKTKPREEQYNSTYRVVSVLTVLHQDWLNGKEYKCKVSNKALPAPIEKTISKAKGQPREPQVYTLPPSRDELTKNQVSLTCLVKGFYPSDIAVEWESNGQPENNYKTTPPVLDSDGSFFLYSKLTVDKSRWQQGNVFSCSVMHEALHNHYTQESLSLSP
light: B1 light
notes: also called Ho Ab H268_08L
B14: GpH7-B3 variant E333_15Y/GpL16-k0 (antibody, human IgG1, kappa)
heavy: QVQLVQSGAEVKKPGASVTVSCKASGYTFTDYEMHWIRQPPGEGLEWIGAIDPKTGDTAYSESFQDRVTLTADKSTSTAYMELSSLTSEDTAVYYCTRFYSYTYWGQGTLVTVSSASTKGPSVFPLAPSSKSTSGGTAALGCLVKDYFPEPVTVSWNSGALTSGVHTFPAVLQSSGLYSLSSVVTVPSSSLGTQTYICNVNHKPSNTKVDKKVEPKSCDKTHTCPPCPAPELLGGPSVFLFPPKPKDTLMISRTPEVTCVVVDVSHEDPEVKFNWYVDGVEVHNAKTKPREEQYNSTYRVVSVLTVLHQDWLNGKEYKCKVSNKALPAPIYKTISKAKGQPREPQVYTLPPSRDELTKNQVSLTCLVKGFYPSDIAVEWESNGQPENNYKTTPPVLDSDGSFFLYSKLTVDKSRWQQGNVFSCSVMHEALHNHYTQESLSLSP
light: B1 light
notes: also called Ho Ab E333_15Y
B15: GpH7-B3 variant E269_07I/GpL16-k0 (antibody, human IgG1, kappa)
heavy: not shown
light: B1 light
notes: also called Ho Ab E269_07I
B16: GpH7-B3 variant E333_09D/GpL16-k0 (antibody, human IgG1, kappa)
heavy: not shown
light: B1 light
notes: also called Ho Ab E333_09D
B17: GpH7-B3 variant K326_14T/GpL16-k0 (antibody, human IgG1, kappa)
heavy: not shown
light: B1 light
notes: also called Ho Ab K326_14T
B18: GpH7-B3 variant H268_05P/GpL16-k0 (antibody, human IgG1, kappa)
heavy: not shown
light: B1 light
notes: also called Ho Ab H268_05P
B19: GpH7-B3 variant E269_18N/GpL16-k0 (antibody, human IgG1, kappa)
heavy: not shown
light: B1 light
notes: also called Ho Ab E269_18N
B20: GpH7-B3 variant E333_16H/GpL16-k0 (antibody, human IgG1, kappa)
heavy: not shown
light: B1 light
notes: also called Ho Ab E333_16H
B21: GpH7-B3 variant E333_07I/GpL16-k0 (antibody, human IgG1, kappa)
heavy: not shown
light: B1 light
notes: also called Ho Ab E333_07I
B22: GpH7-B3 variant E333_13S/GpL16-k0 (antibody, human IgG1, kappa)
heavy: not shown
light: B1 light
notes: also called Ho Ab E333_13S
B23: GpH7-B3 variant E333_01G/GpL16-k0 (antibody, human IgG1, kappa)
heavy: not shown
light: B1 light
notes: also called Ho Ab E333_01G
B24: GpH7-B3 variant A330_14T/GpL16-k0 (antibody, human IgG1, kappa)
heavy: not shown
light: B1 light
notes: also called Ho Ab A330_14T
B25: GpH7-B3 variant K326_16H/GpL16-k0 (antibody, human IgG1, kappa)
heavy: not shown
light: B1 light
notes: also called Ho Ab K326_16H
B26: GpH7-B3 variant I332_12R/GpL16-k0 (antibody, human IgG1, kappa)
heavy: not shown
light: B1 light
notes: also called Ho Ab I332_12R
B27: GpH7-B3 variant A330_16H/GpL16-k0 (antibody, human IgG1, kappa)
heavy: not shown
light: B1 light
notes: also called Ho Ab A330_16H
B28: GpH7-B3 variant E269_08L/GpL16-k0 (antibody, human IgG1, kappa)
heavy: not shown
light: B1 light
notes: also called Ho Ab E269_08L
B29: GpH7-B3 variant E333_12R/GpL16-k0 (antibody, human IgG1, kappa)
heavy: not shown
light: B1 light
notes: also called Ho Ab E333_12R
B30: GpH7-B3 variant I336_18N/GpL16-k0 (antibody, human IgG1, kappa)
heavy: not shown
light: B1 light
notes: also called Ho Ab I336_18N
B31: GpH7-B3 variant E269_09D/GpL16-k0 (antibody, human IgG1, kappa)
heavy: not shown
light: B1 light
notes: also called Ho Ab E269_09D
B32: GpH7-B3 variant I336_01G/GpL16-k0 (antibody, human IgG1, kappa)
heavy: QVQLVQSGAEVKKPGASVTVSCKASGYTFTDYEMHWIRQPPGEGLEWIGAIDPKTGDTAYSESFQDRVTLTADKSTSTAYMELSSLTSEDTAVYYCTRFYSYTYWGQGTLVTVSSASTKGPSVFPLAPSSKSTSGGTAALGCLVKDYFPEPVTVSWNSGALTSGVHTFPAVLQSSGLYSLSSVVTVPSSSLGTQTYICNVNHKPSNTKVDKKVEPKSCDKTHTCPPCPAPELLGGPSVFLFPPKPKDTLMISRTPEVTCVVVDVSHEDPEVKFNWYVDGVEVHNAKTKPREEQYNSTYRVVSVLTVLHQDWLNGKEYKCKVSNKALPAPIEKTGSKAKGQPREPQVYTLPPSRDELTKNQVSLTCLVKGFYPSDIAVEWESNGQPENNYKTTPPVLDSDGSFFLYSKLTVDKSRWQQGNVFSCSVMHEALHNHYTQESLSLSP
light: B1 light
notes: also called Ho Ab I336_01G
B33: GpH7-B3 variant E269_13S/GpL16-k0 (antibody, human IgG1, kappa)
heavy: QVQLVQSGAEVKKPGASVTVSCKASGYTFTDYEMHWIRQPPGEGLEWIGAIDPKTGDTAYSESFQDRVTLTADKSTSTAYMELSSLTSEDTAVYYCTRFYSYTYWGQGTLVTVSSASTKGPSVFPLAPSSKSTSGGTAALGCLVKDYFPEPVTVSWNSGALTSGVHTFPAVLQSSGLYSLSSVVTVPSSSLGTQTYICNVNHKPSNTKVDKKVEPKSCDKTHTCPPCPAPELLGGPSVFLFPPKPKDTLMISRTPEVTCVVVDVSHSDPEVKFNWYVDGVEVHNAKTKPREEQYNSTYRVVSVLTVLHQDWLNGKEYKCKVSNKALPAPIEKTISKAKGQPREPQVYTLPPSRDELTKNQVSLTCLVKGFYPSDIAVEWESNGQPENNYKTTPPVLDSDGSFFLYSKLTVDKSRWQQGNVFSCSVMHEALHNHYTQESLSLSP
light: B1 light
notes: also called Ho Ab E269_13S
B34: GpH7-B3 variant A330_11K/GpL16-k0 (antibody, human IgG1, kappa)
heavy: not shown
light: B1 light
notes: also called Ho Ab A330_11K
B35: GpH7-B3 variant E269_16H/GpL16-k0 (antibody, human IgG1, kappa)
heavy: not shown
light: B1 light
notes: also called Ho Ab E269_16H
B36: GpH7-B3 variant I336_02A/GpL16-k0 (antibody, human IgG1, kappa)
heavy: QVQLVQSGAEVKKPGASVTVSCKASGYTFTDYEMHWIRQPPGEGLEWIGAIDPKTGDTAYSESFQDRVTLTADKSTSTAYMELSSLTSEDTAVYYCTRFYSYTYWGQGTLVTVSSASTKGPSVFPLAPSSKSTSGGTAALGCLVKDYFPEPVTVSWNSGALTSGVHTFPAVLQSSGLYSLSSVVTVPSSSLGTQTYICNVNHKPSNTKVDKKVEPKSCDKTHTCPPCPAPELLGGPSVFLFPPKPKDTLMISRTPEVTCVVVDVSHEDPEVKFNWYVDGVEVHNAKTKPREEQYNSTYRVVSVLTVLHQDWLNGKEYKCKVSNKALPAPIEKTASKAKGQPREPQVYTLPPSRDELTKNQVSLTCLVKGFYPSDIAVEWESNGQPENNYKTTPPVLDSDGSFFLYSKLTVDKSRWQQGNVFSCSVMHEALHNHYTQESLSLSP
light: B1 light
notes: also called Ho Ab I336_02A
B37: GpH7-B3 variant A330_09D/GpL16-k0 (antibody, human IgG1, kappa)
heavy: not shown
light: B1 light
notes: also called Ho Ab A330_09D
B38: GpH7-B3 variant I336_03V/GpL16-k0 (antibody, human IgG1, kappa)
heavy: not shown
light: B1 light
notes: also called Ho Ab I336_03V
B39: GpH7-B3 variant E333_06M/GpL16-k0 (antibody, human IgG1, kappa)
heavy: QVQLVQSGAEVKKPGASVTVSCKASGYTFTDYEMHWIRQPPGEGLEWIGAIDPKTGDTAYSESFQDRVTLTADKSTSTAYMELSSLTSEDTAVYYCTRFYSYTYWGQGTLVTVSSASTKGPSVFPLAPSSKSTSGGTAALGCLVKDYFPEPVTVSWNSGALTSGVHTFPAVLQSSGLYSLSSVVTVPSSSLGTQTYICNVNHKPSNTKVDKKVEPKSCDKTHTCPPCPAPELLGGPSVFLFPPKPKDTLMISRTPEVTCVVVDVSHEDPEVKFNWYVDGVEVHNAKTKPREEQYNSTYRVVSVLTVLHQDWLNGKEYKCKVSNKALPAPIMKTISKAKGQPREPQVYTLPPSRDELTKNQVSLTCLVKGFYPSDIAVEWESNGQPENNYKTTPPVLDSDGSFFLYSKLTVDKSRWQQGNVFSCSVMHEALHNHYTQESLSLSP
light: B1 light
notes: also called Ho Ab E333_06M
B40: GpH7-B3 variant E269_02A/GpL16-k0 (antibody, human IgG1, kappa)
heavy: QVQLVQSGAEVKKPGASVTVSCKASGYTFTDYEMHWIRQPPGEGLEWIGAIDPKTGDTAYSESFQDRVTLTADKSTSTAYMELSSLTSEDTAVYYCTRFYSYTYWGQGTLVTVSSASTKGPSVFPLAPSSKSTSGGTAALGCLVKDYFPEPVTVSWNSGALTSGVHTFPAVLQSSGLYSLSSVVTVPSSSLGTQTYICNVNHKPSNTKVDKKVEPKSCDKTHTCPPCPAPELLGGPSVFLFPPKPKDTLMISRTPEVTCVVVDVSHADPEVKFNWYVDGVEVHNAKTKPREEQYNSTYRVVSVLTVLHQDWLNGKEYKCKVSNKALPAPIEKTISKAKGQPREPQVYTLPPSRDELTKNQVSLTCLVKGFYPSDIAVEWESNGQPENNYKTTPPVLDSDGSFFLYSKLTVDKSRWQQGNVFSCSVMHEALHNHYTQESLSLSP
light: B1 light
notes: also called Ho Ab E269_02A
B41: GpH7-B3 variant E269_19Q/GpL16-k0 (antibody, human IgG1, kappa)
heavy: not shown
light: B1 light
notes: also called Ho Ab E269_19Q
B42: GpH7-B3 variant I336_06M/GpL16-k0 (antibody, human IgG1, kappa)
heavy: not shown
light: B1 light
notes: also called Ho Ab I336_06M
B43: GpH7-B3 variant H268_02A/GpL16-k0 (antibody, human IgG1, kappa)
heavy: not shown
light: B1 light
notes: also called Ho Ab H268_02A
B44: GpH7-B3 variant E333_14T/GpL16-k0 (antibody, human IgG1, kappa)
heavy: not shown
light: B1 light
notes: also called Ho Ab E333_14T
B45: GpH7-B3 variant H268_12R/GpL16-k0 (antibody, human IgG1, kappa)
heavy: not shown
light: B1 light
notes: also called Ho Ab H268_12R
B46: GpH7-B3 variant E333_03V/GpL16-k0 (antibody, human IgG1, kappa)
heavy: not shown
light: B1 light
notes: also called Ho Ab E333_03V
B47: GpH7-B3 variant E269_15Y/GpL16-k0 (antibody, human IgG1, kappa)
heavy: not shown
light: B1 light
notes: also called Ho Ab E269_15Y
B48: GpH7-B3 variant E269_04F/GpL16-k0 (antibody, human IgG1, kappa)
heavy: not shown
light: B1 light
notes: also called Ho Ab E269_04F
B49: GpH7-B3 variant I336_10E/GpL16-k0 (antibody, human IgG1, kappa)
heavy: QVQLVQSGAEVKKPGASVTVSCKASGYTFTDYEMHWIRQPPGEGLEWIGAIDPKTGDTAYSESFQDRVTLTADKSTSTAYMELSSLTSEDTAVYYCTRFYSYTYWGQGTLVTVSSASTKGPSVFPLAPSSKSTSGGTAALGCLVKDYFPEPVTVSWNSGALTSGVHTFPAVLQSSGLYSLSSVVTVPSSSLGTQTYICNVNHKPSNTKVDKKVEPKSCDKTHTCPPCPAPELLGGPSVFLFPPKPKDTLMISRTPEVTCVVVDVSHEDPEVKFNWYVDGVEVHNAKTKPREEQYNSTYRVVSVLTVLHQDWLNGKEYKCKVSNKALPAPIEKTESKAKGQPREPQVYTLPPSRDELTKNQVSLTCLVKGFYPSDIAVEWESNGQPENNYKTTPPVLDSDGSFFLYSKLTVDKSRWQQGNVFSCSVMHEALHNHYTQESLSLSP
light: B1 light
notes: also called Ho Ab I336_10E
B50: GpH7-B3 variant E269_20W/GpL16-k0 (antibody, human IgG1, kappa)
heavy: not shown
light: B1 light
notes: also called Ho Ab E269_20W
B51: GpH7-B3 variant E333_05P/GpL16-k0 (antibody, human IgG1, kappa)
heavy: not shown
light: B1 light
notes: also called Ho Ab E333_05P
B52: GpH7-B3 variant E269_14T/GpL16-k0 (antibody, human IgG1, kappa)
heavy: not shown
light: B1 light
notes: also called Ho Ab E269_14T
B53: GpH7-B3 variant E333_11K/GpL16-k0 (antibody, human IgG1, kappa)
heavy: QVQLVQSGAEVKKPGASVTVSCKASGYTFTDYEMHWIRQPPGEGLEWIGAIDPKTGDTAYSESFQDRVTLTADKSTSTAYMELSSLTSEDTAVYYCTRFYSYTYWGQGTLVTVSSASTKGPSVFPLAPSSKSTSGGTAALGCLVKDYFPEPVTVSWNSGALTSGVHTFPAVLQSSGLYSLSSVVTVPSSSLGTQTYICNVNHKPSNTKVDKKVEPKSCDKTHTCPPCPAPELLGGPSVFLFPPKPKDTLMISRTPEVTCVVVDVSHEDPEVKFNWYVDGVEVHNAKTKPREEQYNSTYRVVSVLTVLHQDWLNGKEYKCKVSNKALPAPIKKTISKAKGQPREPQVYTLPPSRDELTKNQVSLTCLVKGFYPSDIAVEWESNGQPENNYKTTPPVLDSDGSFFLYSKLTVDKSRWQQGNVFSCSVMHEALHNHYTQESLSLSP
light: B1 light
notes: also called Ho Ab E333_11K
B54: GpH7-B3 variant E269_03V/GpL16-k0 (antibody, human IgG1, kappa)
heavy: not shown
light: B1 light
notes: also called Ho Ab E269_03V
B55: GpH7-B3 variant E269_06M/GpL16-k0 (antibody, human IgG1, kappa)
heavy: not shown
light: B1 light
notes: also called Ho Ab E269_06M
B56: GpH7-B3 variant E269_05P/GpL16-k0 (antibody, human IgG1, kappa)
heavy: not shown
light: B1 light
notes: also called Ho Ab E269_05P
B57: GpH7-B3 variant K326_12R/GpL16-k0 (antibody, human IgG1, kappa)
heavy: not shown
light: B1 light
notes: also called Ho Ab K326_12R
B58: GpH7-B3 variant A330_08L/GpL16-k0 (antibody, human IgG1, kappa)
heavy: not shown
light: B1 light
notes: also called Ho Ab A330_08L

target: T1, FcγRIa (human, UniProt P12314 16-292); assay: SPR (Biacore); Ho Ab relative to HoCon Ab = 100
T1 construct: extracellular domain; also called FcgRI; 1a
T1 sequence (P12314 16-292): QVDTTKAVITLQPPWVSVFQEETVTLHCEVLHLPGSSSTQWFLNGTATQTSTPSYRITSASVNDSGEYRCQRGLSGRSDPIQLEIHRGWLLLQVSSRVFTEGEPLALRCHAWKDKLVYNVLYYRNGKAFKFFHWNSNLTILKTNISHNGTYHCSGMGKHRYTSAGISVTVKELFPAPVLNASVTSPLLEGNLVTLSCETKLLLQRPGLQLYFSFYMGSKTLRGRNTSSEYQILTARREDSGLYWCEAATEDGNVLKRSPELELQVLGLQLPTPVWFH
Protocol: Analysis of interaction between objective antibody and the FcγR was carried out using Biacore T100 (GE Healthcare). HBS-EP+ (GE Healthcare) was used as the running buffer, and the measurement temperature was set to 25° C. Chips produced by immobilizing the antigen peptide by the amine coupling method to a Series S Sencor Chip CM5 (GE Healthcare), or alternatively, chips produced by allowing preliminarily biotinylated antigen peptides to interact with and immobilize onto a Series S Sensor Chip SA (certified) (GE Healthcare) were used. Antibodies of interest were captured onto an antigen peptide-immobilized chip, and allowed to interact to each FcγR diluted with running buffer. To regenerate and repeatedly use the chip, the antibodies captured on the chip were washed off by reacting 10 mM glycine-HCl, pH 1.5.

Row | Ho/Con_1a | Binder
1 | 84.4 % of control | B1
2 | 92.4 % of control | B2
3 | 102 % of control | B3
4 | 96.2 % of control | B4
5 | 109 % of control | B5
6 | 106 % of control | B6
7 | 104 % of control | B7
8 | 101 % of control | B8
9 | 98.4 % of control | B9
10 | 104 % of control | B10
11 | 99 % of control | B11
12 | 106 % of control | B12
13 | 105 % of control | B13
14 | 100 % of control | B14
15 | 97.1 % of control | B15
16 | 103 % of control | B16
17 | 103 % of control | B17
18 | 108 % of control | B18
19 | 92.7 % of control | B19
20 | 99.1 % of control | B20

Row | Ho/Con_1a | Binder
21 | 99.9 % of control | B21
22 | 101 % of control | B22
23 | 100 % of control | B23
24 | 105 % of control | B24
25 | 101 % of control | B25
26 | 93.2 % of control | B26
27 | 104 % of control | B27
28 | 101 % of control | B28
29 | 94.2 % of control | B29
30 | 104 % of control | B30
31 | 106 % of control | B31
32 | 104 % of control | B32
33 | 95.9 % of control | B33
34 | 94.1 % of control | B34
35 | 98.4 % of control | B35
36 | 103 % of control | B36
37 | 108 % of control | B37
38 | 105 % of control | B38
39 | 99.5 % of control | B39
40 | 96.2 % of control | B40

Row | Ho/Con_1a | Binder
41 | 99.6 % of control | B41
42 | 104 % of control | B42
43 | 106 % of control | B43
44 | 98.7 % of control | B44
45 | 105 % of control | B45
46 | 98.4 % of control | B46
47 | 100 % of control | B47
48 | 102 % of control | B48
49 | 107 % of control | B49
50 | 98.9 % of control | B50
51 | 99.2 % of control | B51
52 | 96.2 % of control | B52
53 | 95.8 % of control | B53
54 | 95.4 % of control | B54
55 | 101 % of control | B55
56 | 95.7 % of control | B56
57 | 100 % of control | B57
58 | 106 % of control | B58
